Consider 21 molecules from patent publication US20100279930A1 (published 2010).

Assay [1] addresses T1, human Y4 receptor (human, UniProt P50391 1-375).
T1 construct: whole, on cells; Used as a cell membrane preparation from transfected HEK-293T cells, not as intact cells; also called Human Y Receptor-4
Put plainly: 125I-PP displacement assay, human Y4 receptor membranes.

For assay [2], the target named is T1, human Y4 receptor. The experiment in a line: 125I-PP displacement assay, human Y4 receptor membranes; weaker reference compound.

Numbering of substitutions follows the chain as printed. No end group written: not given here.

T1 sequence (P50391 whole entry): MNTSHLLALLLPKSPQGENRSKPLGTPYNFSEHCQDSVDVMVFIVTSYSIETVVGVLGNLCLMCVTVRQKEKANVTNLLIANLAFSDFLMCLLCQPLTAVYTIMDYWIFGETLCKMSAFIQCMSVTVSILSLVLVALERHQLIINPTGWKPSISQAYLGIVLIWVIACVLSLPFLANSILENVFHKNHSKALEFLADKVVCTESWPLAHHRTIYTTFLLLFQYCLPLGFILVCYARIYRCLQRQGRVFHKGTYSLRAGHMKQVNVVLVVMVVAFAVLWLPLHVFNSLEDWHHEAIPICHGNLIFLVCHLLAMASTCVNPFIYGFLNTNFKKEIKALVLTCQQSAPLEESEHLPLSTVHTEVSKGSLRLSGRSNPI

B1: compound of SEQ ID NO:1090 (code 4059937) (peptide)
peptide: GAPLEPHAPGDNATPEEMAKYAAELRRYINKLTRPRY
modifications: ends and bridges not checked
notes: Synthetic analogue of human PP; cited for a change at position 7
For B1, in the assay with human Y4 receptor [1], the binding result was “binds”.

B2: compound of SEQ ID NO:62 (code 6659) (peptide)
peptide: APLEPVYPGDNATPEQMAQYAADLRRYINMLTRPHRY
modifications: ends and bridges not checked
notes: Synthetic analogue of human PP; cited for changes at positions 34-36
Turning to B2, in the assay with human Y4 receptor [1], the binding result is “binds”.

B3: compound of SEQ ID NO:24 (code 6453) (peptide)
peptide: APLEPVYPGDNATPEQMAQYAADLRRYINMLTRQRY
modifications: ends and bridges not checked
notes: as for B2
As for B3, in the assay with human Y4 receptor [1], the binding result was “binds”.

B4: compound of SEQ ID NO:260 (code 4055714) (peptide)
peptide: B3 peptide with M30V, Q34P
modifications: ends and bridges not checked
notes: Synthetic analogue of human PP; cited for changes at positions 29-31
Regarding B4, the binding result in the assay with human Y4 receptor [1] is “binds”.

B5: compound of SEQ ID NO:277 (Ala 23, code 4055747) (peptide)
peptide: B3 peptide with D23A, Q34P
notes: Synthetic analogue of human PP with Ala at position 23
Consider B5, for which, in the assay with human Y4 receptor [2], the binding result is “binds”.

B6: compound of SEQ ID NO:281 (Lys 30, code 4055855) (peptide)
peptide: B3 peptide with M30K, Q34P
notes: Synthetic analogue of human PP with Lys at position 30
Consider B6, for which the binding result with human Y4 receptor [2] is “binds”.

B7: compound of SEQ ID NO:261 (code 4055715) (peptide)
peptide: B3 peptide with M30F, Q34P
modifications: ends and bridges not checked
notes: as for B4
For the molecule B7, the binding result in the assay with human Y4 receptor [1] is listed as “binds”.

B8: compound of SEQ ID NO:275 (code 4055745) (peptide)
peptide: B3 peptide with V6F, Q34P
modifications: ends and bridges not checked
notes: Synthetic analogue of human PP; cited for a change at position 6
B8: the binding result in the assay with human Y4 receptor [1] is given as “binds”.

B9: compound of SEQ ID NO:224 (Lys 19, code 4055291) (peptide)
peptide: B3 peptide with Q19K, Q34P
notes: Synthetic analogue of human PP with Lys at position 19
Turning to B9, the binding result with human Y4 receptor [2] is on record as “binds”.

B10: compound of SEQ ID NO:255 (code 4055708) (peptide)
peptide: B3 peptide with Q34P, Y36F
modifications: ends and bridges not checked
notes: as for B2
With B10, in the assay with human Y4 receptor [1], the binding result was “binds”.

B11: compound of SEQ ID NO:167 (code 7214) (peptide)
peptide: B3 peptide with D23A, M30K, Q34P
notes: Synthetic analogue of human PP with Ala at position 23 and Lys at position 30
On to B11, for which the binding result with human Y4 receptor [1] is recorded as “binds”.

B12: compound of SEQ ID NO:276 (4055746) (peptide)
peptide: B3 peptide with V6E, Q34P
modifications: ends and bridges not checked
notes: as for B8
As to B12, the binding result in the assay with human Y4 receptor [1] is “binds”.

B13: compound of SEQ ID NO:259 (code 4055713) (peptide)
peptide: B3 peptide with M30I, Q34P
modifications: ends and bridges not checked
notes: as for B4
In the case of B13, the binding result in the assay with human Y4 receptor [1] was “binds”.

B14: compound of SEQ ID NO:52 (code 6647) (peptide)
peptide: KAPLEPVYPGDNATPEQMAQYAADLRRYINMLTRPRY
notes: Synthetic analogue of human PP with an additional amino acid at position 0
Consider B14, for which the binding result in the assay with human Y4 receptor [1] is reported as “binds”.

B15: compound of SEQ ID NO:9 (Ala 0, code 6433) (peptide)
peptide: B14 peptide with K1A
notes: Synthetic analogue of human PP with an additional Ala at position 0
Consider B15, for which, in the assay with human Y4 receptor [2], the binding result is listed as “binds”.

B16: compound of SEQ ID NO:53 (code 6650) (peptide)
peptide: B14 peptide with K1H
notes: as for B14
Turning to B16, in the assay with human Y4 receptor [1], the binding result is on record as “binds”.

B17: compound of SEQ ID NO:168 (Ala 0, Ala 23 and Lys 30, code 7215) (peptide)
peptide: B14 peptide with K1A, D24A, M31K
notes: Synthetic analogue of human PP with additional Ala at position 0, Ala at 23 and Lys at 30
For the molecule B17, the binding result with human Y4 receptor [1] was “binds”.

B18: compound of SEQ ID NO:348 (Ala 0, Lys19, Lys 30, code 4056385) (peptide)
peptide: B14 peptide with K1A, Q20K, M31K
notes: Synthetic analogue of human PP with additional Ala at position 0, Lys at 19 and Lys at 30
Consider B18, for which the binding result in the assay with human Y4 receptor [1] is given as “binds”.

B19: compound of SEQ ID NO:171 (code 7218) (peptide)
peptide: B14 peptide with K1A, M31K
modifications: ends and bridges not checked
notes: Synthetic analogue of human PP; introduced as additional Ala at position 0 and Lys at position 30, later in the same paragraph labelled 'Ala 0, Lys 19'
Consider B19, for which the binding result with human Y4 receptor [1] was “binds”.

B20: compound of SEQ ID NO:56 (code 6653) (peptide)
peptide: B14 peptide with K1P
notes: as for B14
In the case of B20, the binding result with human Y4 receptor [1] is recorded as “binds”.

B21: compound of SEQ ID NO:702 (code 4058286) (peptide)
peptide: PAPLEAVYPGDNATPEQMARYYSELRRYINKLTRPRY
modifications: ends and bridges not checked
notes: Synthetic analogue of human PP; cited for Ala at position 5
For the molecule B21, the binding result in the assay with human Y4 receptor [1] is “binds”.
